Assay results published in patent US20110064733A1.

Tests used:
[1] = biological target: Muc1 mucin bearing the CA6 sialoglycotope (DS6 antigen), as expressed by CA6-positive human tumour cell lines (human) (UniProt P15941); assay: flow cytometry on CaOV3 cells
[2] = biological target: Muc1 mucin bearing the CA6 sialoglycotope (DS6 antigen), as expressed by CA6-positive human tumour cell lines (human) (UniProt P15941); assay: flow cytometry on BT549 cells
[3] = biological target: Muc1 mucin bearing the CA6 sialoglycotope (DS6 antigen), as expressed by CA6-positive human tumour cell lines (human) (UniProt P15941); assay: flow cytometry on KB cells
[4] = biological target: Muc1 mucin bearing the CA6 sialoglycotope (DS6 antigen), as expressed by CA6-positive human tumour cell lines (human) (UniProt P15941); assay: flow cytometry on MCF7 cells
[5] = biological target: Muc1 mucin bearing the CA6 sialoglycotope (DS6 antigen), as expressed by CA6-positive human tumour cell lines (human) (UniProt P15941); assay: flow cytometry on HeLa cells

Q: For CM1 antibody (Muc1 VNTR antibody), which MMF (maximum mean relative fluorescence) (relative fluorescence) [1] is on record?
A: Its MMF (maximum mean relative fluorescence) (relative fluorescence) is 1030.

Q: And the MMF (maximum mean relative fluorescence) (relative fluorescence) [2]?
A: The MMF (maximum mean relative fluorescence) (relative fluorescence) was 188.

Q: And the MMF (maximum mean relative fluorescence) (relative fluorescence) [3]?
A: Its MMF (maximum mean relative fluorescence) (relative fluorescence) is 338.

Q: And the MMF (maximum mean relative fluorescence) (relative fluorescence) [4]?
A: Its MMF (maximum mean relative fluorescence) (relative fluorescence) is 1020.

Q: And the MMF (maximum mean relative fluorescence) (relative fluorescence) [5]?
A: The MMF (maximum mean relative fluorescence) (relative fluorescence) was 335.
